This is an account of results in patent publication US12441790B2, “Binding proteins to the human thrombin receptor, PAR4” (MONASH UNIVERSITY, priority 2017, dated 2025).

Series [1] has as its target T1, PAR1 (Homo sapiens, UniProt P25116).
T1 construct: host or cells: patients in clinical trials
T1 sequence (P25116 22-425): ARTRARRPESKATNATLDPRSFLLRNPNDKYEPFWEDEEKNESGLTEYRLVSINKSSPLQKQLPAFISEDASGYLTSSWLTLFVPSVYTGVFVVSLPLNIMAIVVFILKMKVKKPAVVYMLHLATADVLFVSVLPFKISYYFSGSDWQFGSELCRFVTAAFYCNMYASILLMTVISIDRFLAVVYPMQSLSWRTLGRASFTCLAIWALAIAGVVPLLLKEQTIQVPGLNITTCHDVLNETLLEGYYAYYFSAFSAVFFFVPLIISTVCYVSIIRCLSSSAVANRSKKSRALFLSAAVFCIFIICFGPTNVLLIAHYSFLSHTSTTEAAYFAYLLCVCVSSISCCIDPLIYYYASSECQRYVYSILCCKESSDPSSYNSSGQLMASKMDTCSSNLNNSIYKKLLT
The conditions noted are these: in combination with single or dual antiplatelet therapy; cited from earlier work.

Series [2] relates to human platelets. The experiment in a line: Functional screen of hybridoma supernatants by platelet aggregation assay. Type of series: cell-based. The conditions noted are these: aggregation as % of control. As for the experimental part: Platelet aggregation was measured by light transmission aggregometry in a 96-well plate format. Human isolated platelets (2×10^8/ml) were pre-treated for 10 mins at 37° C. with dimethylsulfoxide (DMSO) (1% v/v), the PAR1 antagonist vorapaxar (90 nM), the anti-PAR4 antibody 5RC3 (20-100 μg/ml), or a combination of vorapaxar and 5RC3. Platelets were treated with one of thrombin (0.1 U/ml) and aggregation was analysed at 37° C. in a FLUOstar OPTIMA plate reader (BMG Labtech) using a 595 nm excitation filter, for a period of 50 min (10 read cycles with 5 min double orbital shake period between each read). Optical density was normalised against the blank (maximum) and unstimulated platelets (minimum) and expressed as % maximum.
Thrombin-induced platelet aggregation in the presence of a PAR1 antagonist (i.e. PAR4-dependent aggregation) is shown for 30 monoclonal antibody supernatants binding to human platelets. Antibody supernatant was mixed with human platelets (2×10^8 cells) at a 1:1 ratio.

Series [3] deals with T2, PAR2 (Homo sapiens, UniProt P55085).
T2 construct: host or cells: synthetic peptide
The experiment in a line: ELISA binding ratio to PAR2. The conditions noted are these: second screening. Here is the method:
(§1) 96-well ELISA plates were coated with 50 μl of antigen diluted to a concentration of 4 μg/ml in coating buffer (0.1M Sodium Hydrogen Carbonate (NaHCO3) (Merck, #1.06329.0500)). Plates were incubated overnight at 4° C.
(§2) Wells were then washed with an automated plate washer (300 μl 1×PBS, 3 times). The wells were blocked with 200 μl of blocking buffer (3% BSA/1×PBS (BSA: (Sigma, #1001647742)) for 1 hour at room temperature followed by washing as above.
(§3) 50 μl of undiluted hybridoma cell culture supernatant was added into appropriate wells and incubated at room temperature for 1 hour followed by washing as above. […] Wells were washed as above. A set of substrate tablets (1×silver, 1×gold) into 20 ml of ddH20 by shaking vigorously on the thermomixer for 6 mins at room temperature. 50 μl of substrate ([…]™ p-Nitrophenyl phosphate Tablets (Sigma-Aldrich, N2770-50SET)) was added into each well and incubated for 20-25 mins at room temperature. 50 μl of STOP solution (2M Sodium Hydroxide, Solid (NaOH) (Merck, Cas #1310-73-2)) was added into each well to stop the reaction. Absorbance was read at 405 nm immediately after adding STOP solution with the ELISA reader, using the ‘RdrOle4’ software.
On the technique in general: ELISA stands for enzyme-linked immunosorbent assay.

In series [4] the target is T3, native PAR4 peptide (Homo sapiens, UniProt Q96RI0).
T3 construct: host or cells: synthetic peptide
The experiment in a line: ELISA screening of hybridoma supernatants, native vs KLH-linked PAR4 peptide. It is filed as binding. The conditions noted are these: first screening; clone; hybridoma supernatant. As for the experimental part: as §1, §2, §3

The target of series [5] is T4, human PAR4 containing an N-terminal FLAG tag (Homo sapiens, UniProt Q96RI0).
T4 construct: expressed in transfected cells; host or cells: HEK293 / HEK293T
T4 sequence (Q96RI0 18-385): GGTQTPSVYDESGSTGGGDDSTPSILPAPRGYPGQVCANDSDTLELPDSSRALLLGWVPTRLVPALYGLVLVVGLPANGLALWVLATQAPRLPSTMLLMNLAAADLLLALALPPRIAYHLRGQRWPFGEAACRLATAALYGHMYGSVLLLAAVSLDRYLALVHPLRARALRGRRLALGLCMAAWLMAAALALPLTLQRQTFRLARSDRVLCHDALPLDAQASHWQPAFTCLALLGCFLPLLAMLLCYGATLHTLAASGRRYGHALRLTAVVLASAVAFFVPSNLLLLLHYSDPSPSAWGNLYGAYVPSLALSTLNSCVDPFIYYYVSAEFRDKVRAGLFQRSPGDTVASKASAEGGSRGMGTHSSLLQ
The experiment in a line: PAR4 thrombin cleavage assay, FLAG-tagged PAR4 on HEK293 cells, flow cytometry. It is filed as cell-based. As for the experimental part: 1×10^6 HEK293T cells (in Dulbecco's modified eagle's medium+10% foetal calf serum) were seeded onto 12-well plates 24 hours before transfection. When confluent, they were transiently transfected with 1 μg of DNA from one of the PAR4 variants (expression vectors pBJ-FLAG-PAR4-120A-296F or pBJ-FLAG-PAR4-120T-296F; Edelstein et al (2014) Blood 124(23):3450-8) plus 4 μL of Lipofectamine 2000, as per manufacturer's instructions. Forty-eight hours after transfection, cells were harvested and washed twice with PBS, then resuspended to a count of 1×10^6/mL. Cells (50 μL assays/0.5×10^5 cells per condition) were then pre-treated with either 1, 10 or 100 μg/mL of 5RC3 or sub-clone 5A.RC3.F10b.H4b or 100 μg/mL matched Isotype control (mouse IgG1) for 15 minutes at 37° C. Cells were then stimulated with 2 U/mL of thrombin for 10 minutes. The reaction was stopped by the addition of 4 U/mL hirudin. Cells were then washed once and resuspended with PBS containing a 1:200 dilution of FITC anti-FLAG antibody (Sigma, clone M2) and incubated for 1 hour at room temperature in the dark. Cells were then fixed with 1% paraformaldehyde (final concentration) and read on a FACSCalibur flow cytometer to determine % of FL1/FITC-Positive events. Data were normalised against the resting sample (100%, no thrombin treatment).
Monoclonal antibody hybridoma supernatants (MoB5ARC3, MoB5BRB4, MoB5BRC6, MoB5BRH3 and MoB5CRC4) were screened for their ability to […] intact PAR4 present on the surface of HEK293 cells transfected with human PAR4 containing an N-terminal FLAG tag.
[…] Cleavage of PAR4 by thrombin was measured by loss of FLAG tag from the PAR4 expression HEK293T cells using flow cytometry.
(In general: A flow cytometer gives signals particle by particle.)

T2 sequence (P55085 with tags, fused parts or gaps limits assumed): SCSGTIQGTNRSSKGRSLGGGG

Consider `CCOC(=O)N[C@@H]1CC[C@@H]2[C@@H](C1)C[C@H]1C(=O)O[C@H](C)[C@H]1[C@H]2/C=C/c1ccc(-c2cccc(F)c2)cn1` [vorapaxar], for which the intracranial bleeding result in series [1] is given as “significantly increased rates of intracranial bleeding”.

B1: MoB5F E6: hybridoma supernatant clone, second screening; likely parent of 5F.RE6 (antibody, V domains shown)
VH: QVQLAESGGGVVQPGRSLRVSCAASGFTFSSYGMHWVRQAPGKGLEWVAVIWYDGTKKYYADSLKGRFTISRDNSKYTLYLQMNSLRADDTALYFCARKGARGITGLDYWGQGTLVTVSS
VL: DIQMTQSPSSLSASAGDRITITCRASQSISNYLNWYQQKPGKAPKLLIYAASSLQSGVPSRFSGSGSGTDFTLTISSLQPEDFASYYCRQNYNTPLTFGGGTKVEIK
Turning to B1, the “Functional screen on hybridoma supernatants” value in series [2] is “Yes (+) (aggregation between 50-80% of control)”. In series [3], the “Binding to PAR2 ratio” value worked out at 1.3.

B2: MoB5G G1: hybridoma supernatant clone, second screening; likely parent of 5G.RG1 (antibody, V domains shown)
VH: QVQLVESGGGVVQPGRSLRLSCVASGFTLSSYGMHWVRQAPGKGLEWVAVIWYDGSSKYYTDSVKGRFDISRDNSKNTLYLQMNILRAEDTAVYYCARETILIGGVPFDYWGQGTLVTVSS
VL: EIVLTQSPGTLSLSPGERATLSCGASQSIRSNYLAWYQQKPGQAPRLLIYGASSRATGTPDRFSGSGSGTDFTLTITRLEPEDFALYYCQQYGRSYTFGQGTKLEIK
Regarding B2, the “Functional screen on hybridoma supernatants” value in series [2] is recorded as “Yes (+++) (aggregation <25% of control)”. In addition, the “Binding to PAR2 ratio” value in series [3] was 1.0.

B3: MoB5AR C3: parent hybridoma clone (supernatant) from which 5A.RC3.F10b.H4b was sub-cloned (antibody, V domains shown)
VH: QVQLVESGGGVVQPGRSLRLSCAASGFTLSNYGMHWVRQAPGKGLEWVSVIWYDGSNKHYADSVKGRFTISRDNSKNTLYLQMNSLRAEDTAVYYCARESIVEVLPPFDYWGQGTLVTVSS
VL: KIVLTQSPGTLSLSPGERVTLSCRASQRVRNNYLAWFQQKPGQAPRLFIYGASSRATGIPDRFSGSGSGTDFIFTISRLEPEDFAVYYCQQYGNSYTFGQGTKLEIK
modifications: VH of 5A.RC3; VL of 5A.RC3
notes: parent hybridoma clone (supernatant) from which 5A.RC3.F10b.H4b was sub-cloned
With B3, the “Fold binding native vs KLH-linked PAR4 peptide” value in series [4] stood at 19.9. For the same molecule, the “Functional screen on hybridoma supernatants that exhibited binding” value in series [5] (% of uncleaved PAR4 peptide expressed on HEK293 cells) is on record as “Yes (Hybridoma supernatants that demonstrated greater than 70% of uncleaved PAR4 were considered positive)”. For the same molecule, the “blocked thrombin-induced cleavage of PAR4” value in series [5] (initial screen of hybridoma supernatants, thrombin 2 U/ml for 10 mins) was “at least 90%”. Moreover, in series [5] (initial screen, thrombin 2 U/ml for 10 mins), the “block of thrombin-induced cleavage of PAR4” value is listed as “almost completely blocked thrombin-induced cleavage of PAR4”.
